The results in this text go back to publication PMC9650048.

Assay [1] addresses histone deacetylase 1 (HDAC1), Xenopus (Xenopus laevis (endogenous in egg nucleoplasmic extract)). In words: immunodepletion (co-depletion), Western blot of the depleted extract; antibody on Protein-A Sepharose incubated with NPE at 4 °C for 1 h over two rounds; depleted extract blotted.
The target is the same in assay [2]. Description: co-IP; sequential IPs from NPE diluted 5x in ELB (10 mM Hepes-KOH pH 7.7, 2.5 mM MgCl2, 50 mM KCl, 250 mM sucrose), serum or antibody on Protein-A Sepharose, 4 °C 120 min, three washes; first round HDAC1 or HDAC2 IP, second round the converse antibody on the supernatant; supernatant and pellet by Western blot.

“histone deacetylase 2 (HDAC2), Xenopus (enzyme)” returned a percent of HDAC2 codepleted with HDAC1 in assay [1] of 50%. The same substance gave a percent of HDAC2 removed by the HDAC1 IP in assay [2] of 50%.
